# Experimental data: the supplement of paper PMC10598134
# ± gives the standard deviation.
# Test: collision cross section of unmodified peptide (TIMS, N2, iRT-aligned); higher = larger / more extended gas-phase ion
# Protocol: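 Unmodified synthetic counterpart peptides (ProteomeTools / JPT), analysed by nanoLC-TIMS-QTOF (dda-PASEF). 1/K0 was aligned run-wise to spiked iRT peptides and converted to CCS in N2 (Mason-Schamp). Values are the mean of 1-3 technical replicates for the most abundant feature at each charge state. The same unmodified peptide is repeated across rows and is averaged.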
Sequence,collision cross section (charge state: 2) [Å²],collision cross section (charge state: 3) [Å²]
GVEAVGSYAENQR,378.71 ± 0.16,463.38 ± 1.1
GGSGGRGVSVSSAR,376.75 ± 1.3,456.24 ± 1.8
AQPQDSRGGSK,349.19 ± 0.54,421.45 ± 6.4
APVGSVVSVPSQSSASSDK,452.28 ± 0.77,–
LYDIDVAK,334.71 ± 0.73,–
NLVTGDHIPTPQDLPQR,–,475.9 ± 0.23
GSYLGGYSAGRGIYSR,455.17,483.36 ± 2.1
ITLSKHQNVQLPR,434.86 ± 3.1,515.94 ± 19
FPGVGVLPGVPTGAGVKPK,467.47 ± 1.8,560.63 ± 0.35
GTVPDDAVEALADSLGKK,478 ± 3.1,520.87 ± 1.8
SLIGKVDGTSHVTGK,430.43 ± 0.65,491.82 ± 0.22
YIDNQVVSTKGER,414.64 ± 0.66,500.48 ± 1
ASPPLFQSR,339.74 ± 0.58,–
GYGVIFANGNR,361.55 ± 0.6,–
YEQEHAAIQDKLFQVAK,–,555.79 ± 2.3
SAGSVESPSVSSTHR,394.4 ± 0.14,493.72 ± 0.22
LLEEEDSKLK,382.28 ± 0.34,444.51 ± 4.2
DHSKPISNPSDNK,390.86 ± 0.14,478.96 ± 0.22
GLPGLAGDHGEFGEK,432.07 ± 1,504.1 ± 0.34
GSLGAQKLANTCFNEIEK,483.18 ± 2.7,511.29 ± 4.4
TEVLSPNSKVESK,418.58 ± 2.2,483.46 ± 5.8
IISSIEQKEENK,409.72 ± 2.2,479.1 ± 6.7
GPPPSYGGSSR,337.81 ± 0.59,–
LAEQEAHYAVR,394.57 ± 1.1,471.99 ± 1.1
FGVEAFSDCLR,384.72 ± 0.67,–
AYGELPEHAK,366.13 ± 0.54,441.2 ± 1.1

Sequence,collision cross section (charge state: 2) [Å²],collision cross section (charge state: 3) [Å²]
VGYPGPSGPLGARGIPGIK,447.51 ± 0.68,562.22 ± 0.35
IHPEGPPLK,335.79 ± 0.58,438.33 ± 2
SDDESSQKDIK,372.47 ± 1.1,449.63 ± 0.82
DSINFLDHINGKK,–,459.87 ± 3.8
DYQPGITFIVVQKR,447.74 ± 2,520.02 ± 0.34
VELCSFSGYK,358.19 ± 0.59,–
LEQVEKELLR,383.51 ± 1.5,455.22 ± 4.1
GFPGAPGLPGLKGHR,–,475.59 ± 1.2
SSDLTDRVK,344.22 ± 0.14,424.95 ± 0.87
ATVASSTQKFQDLGVK,459.73 ± 1.9,485.98 ± 5
YLHDESGLNR,361.42 ± 0.55,447.46 ± 1.1
LQAAYAGDKADDIQK,429.74 ± 2.5,497.53 ± 4.8
AVPSSPAGSAARGR,380.85 ± 0.71,489.36 ± 2
CSVLAAANPVYGR,385.24 ± 0.16,–
SDSGKPYYYNSQTK,416.14 ± 3,478.86 ± 16
AGQKLIDVNHYAK,420.25 ± 2.7,474.66 ± 4.5
GYDVIAQAQSGTGK,388.46 ± 0.16,–
LTSLNVKYNNDK,409.04 ± 2,487.29 ± 4.9
LDINTNTYTSQDLK,418.99 ± 0.69,–
TVSKVDDFLANEAK,420.02 ± 1.7,500.46 ± 2.4
GSLEKGSPEDK,350.53 ± 1.5,434.36 ± 3.6
GDQGEPGPSGNPGK,342.01 ± 0.23,–
GEKGDPGLIGPK,373.44 ± 1.5,449.05 ± 1.4
TATLATLATR,333.86 ± 0.69,–
STGLELETPSLVPVKK,457.57 ± 5.2,520.54 ± 2.5
IGSLDNITHVPGGGNK,–,470.46 ± 1.9

Sequence,collision cross section (charge state: 2) [Å²],collision cross section (charge state: 3) [Å²]
SYISSQTNDTHK,399.56 ± 0.14,459.19 ± 1.2
GQKGEPGLPGHPGK,378.64 ± 1.5,470.96 ± 1.2
TVTNAVVTVPAYFNDSQR,471.11 ± 0.99,576.65 ± 1.1
GITGKPGPK,312.13 ± 0.57,–
PSVGSQSNQAGQGKR,422.59 ± 2.3,465.3 ± 4.2
PGTPAGYGRGR,352.56 ± 0.57,442.29 ± 3.7
TQSFSLQER,347.63 ± 0.14,–
FHYQDQEFLK,406.29 ± 0.68,457.95 ± 1.7
AVSILPLLGHGVPRLPPGR,–,563.87 ± 2.3
TQAYQDQKPGTSGLR,425.76 ± 1.4,489.83 ± 5.9
GRGAANDSTQFTVAGR,411.19,473.86 ± 2.3
YVHADAPTNK,347.85 ± 2.8,415.08 ± 2
SSFAYKDQNENR,418.44 ± 1.2,454.53 ± 4.1
LSTPPPLAEEEGLASR,436.07 ± 0.65,482.68 ± 0.86
AAQASDLEKIHLDEK,447.85 ± 1.2,506 ± 5.5
GVPRGVHLGSQGLQR,424.25,484.7 ± 1.8
FTEYETQVK,363.82 ± 1.3,–
YSSSSIPEPFGSRGSPR,433.42,521.94 ± 0.21
DLGKFQVATDALK,413.55 ± 3.7,498.11 ± 6.1
TLHLSHLNRFPAR,–,511.92 ± 1.2
GGGFGAHGRGR,350.63 ± 2.6,420.87 ± 5.1
GIGRGTVQALHATGAR,428.55,501.79 ± 0.73
KVTLSVLSR,348.44 ± 0.58,443.31 ± 0.22
YSTSGSSGLTTGK,373.3 ± 0.54,–
SRGGGGNFGPGPGSNFR,–,460.96 ± 1.4
ISPVEESEDVSNK,399.42 ± 0.14,–

Sequence,collision cross section (charge state: 2) [Å²],collision cross section (charge state: 3) [Å²]
TYVQDILR,349.04 ± 0.59,–
SYVDTGGVSR,337.16 ± 0.15,–
IVSGKDYNVTANSK,405.96 ± 2.6,485.92 ± 5.8
ANEKTESSSAQQVAVSR,440.94 ± 1.7,497.75 ± 27
VTRYPILGIPQAHR,–,523.45 ± 1.1
GSRGFPGEK,330.16 ± 0.23,–
PGGLGSSSLYGLGASRPR,472.2 ± 0.073,533.78 ± 0.86
SKHLQEQLNELK,411.35 ± 1.6,481.15 ± 4.4
LYAVHQEGNK,357.2 ± 1.5,449.31 ± 1.1
YSSNLGNFNYEQRGAFR,–,529.47 ± 0.012
DLATVYVDVLK,382.78 ± 0.75,–
PGPQPSAETTR,342.87 ± 0.58,415.85 ± 2
VEELEGEITTLNHK,424.1 ± 0.66,513.8 ± 3.5
SLEEEGAAHSGKR,399.57 ± 1.8,472.78 ± 3.7
TQAEGQGQGRGLGLVSAVR,–,513.29 ± 0.77
LQLGTPPPLLAARLVPPR,–,572.92 ± 0.68
FYTEDSPGLK,352.82 ± 0.55,–
GERGFPGYPGPK,366.2 ± 1.3,460.83 ± 0.86
GNDISSGTVLSDYVGSGPPK,464.77 ± 1,–
AQLSQYFDAVK,384.48 ± 1.1,–
GEPGIPAIPGIRGPK,382.37 ± 0.58,515.69 ± 0.34
GGGGGRGGLHDFR,368.29 ± 0.36,457.27 ± 2.8
ITGKNQVTATK,365.6 ± 0.91,448.51 ± 5
PSVSTKLISK,360.6 ± 1.3,423.25 ± 3.8
SALAAAQTQVAEYK,422.48 ± 1.1,–
IINEPTAAAIAYGLDKK,487.73 ± 3.8,556.28 ± 2.3
